Measured values: paper PMC11530556

Target: full-length Titin N2B unique sequence (N2B-us) single-molecule construct, 6His-Avi-2I27-N2B-2I27-Spy (human)
Test: magnetic tweezers single-molecule manipulation; full-length N2B-us tether; jump to 8 pN procedure: 1 pN for 10 s, 8 pN for 20 s, back to 1 pN; bead height difference at 1 pN; 200 nM FHL2; five tethers

full-length Titin N2B unique sequence (N2B-us) single-molecule construct, 6His-Avi-2I27-N2B-2I27-Spy (human), sequence (Q8WZ42 3717-4288): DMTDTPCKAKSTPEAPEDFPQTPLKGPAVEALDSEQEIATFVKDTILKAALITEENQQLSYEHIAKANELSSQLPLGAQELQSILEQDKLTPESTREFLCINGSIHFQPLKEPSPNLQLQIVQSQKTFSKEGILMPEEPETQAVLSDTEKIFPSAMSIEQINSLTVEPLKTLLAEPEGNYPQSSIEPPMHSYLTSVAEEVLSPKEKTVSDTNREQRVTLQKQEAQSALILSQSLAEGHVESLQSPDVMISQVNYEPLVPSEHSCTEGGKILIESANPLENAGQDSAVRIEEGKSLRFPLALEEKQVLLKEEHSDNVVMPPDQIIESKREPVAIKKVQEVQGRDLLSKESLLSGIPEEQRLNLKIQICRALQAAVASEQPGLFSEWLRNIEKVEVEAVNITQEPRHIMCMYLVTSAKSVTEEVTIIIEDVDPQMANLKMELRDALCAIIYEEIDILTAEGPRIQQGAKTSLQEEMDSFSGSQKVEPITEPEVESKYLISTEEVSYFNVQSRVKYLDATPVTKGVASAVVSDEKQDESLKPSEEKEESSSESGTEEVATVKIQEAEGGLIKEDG

- average extension difference at 1 pN before and after 20 s at 8 pN, with 200 nM FHL2: 10 nm
Substance: Recombinant GST-FHL2 protein (four-and-a-half LIM domain protein 2) (natural protein)
